Measurements as given in US20130196923A1, “NOVEL PEPTIDES WHICH HAVE ANALGESIC EFFECTS AND WHICH INHIBIT ASIC CHANNELS” (CENTRE NATIONAL DE LA RESERCHE SCIENTIFIQUE-CNRS, published 2013).
Residue numbers refer to the chain shown, from its start. Read-outs that look alike come from different tables or passages of the source.

B1: ASICalgin-2 (π-Dp2) (peptide)
peptide: LKCFQHGKVVTCHRDMKFCYHNTGMPFRNLKLILQGCSSSCSETENNKCCSTDRCNK
B2: ASICalgin-1 (π-Dp1) (peptide)
peptide: B1 peptide with F4Y

Key:
[1] = biological target: rat homomeric ASIC1b channel (rat) (UniProt P55926)
[2] = biological target: rat homomeric ASIC1b channel (rat) (UniProt P55926); remark: listed apart in the source
[3] = biological target: rat homomeric ASIC1a channel (rat, UniProt P55926); assay: cell-based or functional assay
[4] = biological target: human homomeric ASIC1a channel (human, UniProt P78348); assay: cell-based or functional assay
[5] = biological target: rat heteromeric ASIC1a+ASIC1b channel (rat, UniProt P55926); assay: cell-based or functional assay
[6] = biological target: rat heteromeric ASIC1a+ASIC2a channel (rat, UniProt P55926); assay: cell-based or functional assay
[7] = biological target: human heteromeric ASIC1a+ASIC2a channel (human, UniProt P78348); assay: cell-based or functional assay

| Molecule | inhibition of the acid-evoked ASIC current, patch clamp whole cell, COS cells [1] [nM] | inhibition of the acid-evoked ASIC current, patch clamp whole cell, COS cells [2] [nM] | inhibition of the acid-evoked ASIC current, patch clamp whole cell, COS cells [3] [nM] | inhibition of the acid-evoked ASIC current, patch clamp whole cell, COS cells [4] [nM] | inhibition of the acid-evoked ASIC current, patch clamp whole cell, COS cells [5] [nM] | inhibition of the acid-evoked ASIC current, patch clamp whole cell, COS cells [6] [nM] | inhibition of the acid-evoked ASIC current, patch clamp whole cell, COS cells [7] [nM] |
| --- | --- | --- | --- | --- | --- | --- | --- |
| ASICalgin-1 (π-Dp1) (peptide) | 650 | – | – | – | – | – | – |
| B1 | – | 650 | 49 | 127 | 223 | 308 | 308 |
| B2 | – | – | 49 | 127 | 223 | 308 | 308 |
